B1: HDV Ribozyme (parent)
chain: GGCCGGCAUGGUCCCAGCCUCCUCGCUGGCGCCGGCUGGGCAACAUUCCGAGGGGACCGUCCCCUCGGUAAUGGCGAAUGGGACCCA

Variants of: B1
Experiment: self-cleavage, relative activity (ratio to wild type); higher = more cleavage; co-transcriptional

Question: For GUCCGGCAUGGUCCCAGCCUCCUCGCUGGCGCCGGCUGGGCAACGUUCCGAGGGGACCGUCCCCUCGGUAAUGGCGAAUGGGACCCA [G2U A45G], which self-cleavage is on record?
Answer: 0

Question: With GGCCGGCAUGGUCCCAGCCUCCUCGCUGGCGCCGGCCGGGCAACAUUCCGAGGGGACCGUCCCCCCGGUAAUGGCGAAUGGGACCCA [U37C U65C] as the variant, how does the self-cleavage read?
Answer: 1.05

Question: With GGCCGGCAUGGUCCCAGCCUCCUCGGUGGCGCCGGCUGGGCAACAUUCCGAGGGGACCGUCCCCUCGGUAAUGGCGAAUGGGAGCCA [C26G C84G] as the variant, how does the self-cleavage read?
Answer: 0.615

Question: For GGCCGGCAUGGUCCCAGCCUCCUCGCUGGCGCUGGCUGGGCAACAUUCCGUGGGGACCGUCCCCUCGGUAAUGGCGAAUGGGACCCA [C33U A51U], which self-cleavage is on record?
Answer: 0.848

Question: For GGCCGGCAUGGUCCCUGCCUCCUCGCUGUCGCCGGCUGGGCAACAUUCCGAGGGGACCGUCCCCUCGGUAAUGGCGAAUGGGACCCA [A16U G29U], which self-cleavage is on record?
Answer: 0.113

Question: For CGCCGGCAUGGUCCCAGCCUCCUGGCUGGCGCCGGCUGGGCAACAUUCCGAGGGGACCGUCCCCUCGGUAAUGGCGAAUGGGACCCA [G1C C24G], which self-cleavage is on record?
Answer: 0.0462

Question: With GGCCGGCAUGGUCCCAGCCUCCUCGCUGGCGCCGGCUGGGCUACAUUCCGAGGGGACCGUCCCCUCGGUAAUGGCGAAUGGGACCCU [A42U A87U] as the variant, how does the self-cleavage read?
Answer: 0.56

Question: Which self-cleavage does the source give for GGCCGGCAUGGUCCCAGCCGCCUCGCUGGCGCCGGCUGGGCAACAUUCCGAGGGGACCGUCCCCUCGGUAAUGGCGAAUGAGACCCA [U20G G81A] here?
Answer: 0.108

Question: With GGCCGGCAUGGUCCCAGCCUCCUCGCUGGCGCCGGCUGGGCAACAUUCCGAGGGGACCGGCCCCUCGAUAAUGGCGAAUGGGACCCA [U60G G68A] as the variant, how does the self-cleavage read?
Answer: 1.02

Question: With GGCCGGCAUGGUCCCAGACUCCUCGCUGGCGCCGGCUGGGCAACAUUCCGAGGAGACCGUCCCCUCGGUAAUGGCGAAUGGGACCCA [C18A G54A] as the variant, how does the self-cleavage read?
Answer: 0.0779

Question: With GGCCGGCAUGGUCCCAGCCUCUUCGCUGGCGCCGGCUGGGCAACAUUCCGAGGGGACCGUCCCCUCGGUAAUGGCGAAUGGGACCAA [C22U C86A] as the variant, how does the self-cleavage read?
Answer: 0.779

Question: With GGCCUGCAUGGUCCCAGCCUCCUCGCUGGCGCCGGCUGGGCAACAUUCCGAGGGGACCGUCCCCUCGGUAAUGGCGAAUGGGACUCA [G5U C85U] as the variant, how does the self-cleavage read?
Answer: 0.399

Question: For GGCCGGCAUGGUCCCAGCCUCCUCGCUGGCGCCGGCUGAGCAACAUUCCGAGGGGACCGCCCCCUCGGUAAUGGCGAAUGGGACCCA [G39A U60C], which self-cleavage is on record?
Answer: 0.746

Question: Which self-cleavage does the source give for GGCCGGCAUGGUCCCAGCCUCCUCGCUGGCGCCGGCUGGGCAACAUUCCGAGGGGACCGUCCCCCCGGUAAUGGCGAAUGUGACCCA [U65C G81U] here?
Answer: 0.415

Question: Which self-cleavage does the source give for GGCCGGCAUGGUCCUAGCCUCCUCGCUGGCGCCGGCUCGGCAACAUUCCGAGGGGACCGUCCCCUCGGUAAUGGCGAAUGGGACCCA [C15U G38C] here?
Answer: 0.17

Question: With GGCCGGCAUGGUCCCAGCCUCCUCGCUGGAGCCGGCUGGGCAAGAUUCCGAGGGGACCGUCCCCUCGGUAAUGGCGAAUGGGACCCA [C30A C44G] as the variant, how does the self-cleavage read?
Answer: 0.0831

Question: For GGCCGGCAUGGUCCCAGCCUCCCCGCUGACGCCGGCUGGGCAACAUUCCGAGGGGACCGUCCCCUCGGUAAUGGCGAAUGGGACCCA [U23C G29A], which self-cleavage is on record?
Answer: 0.0665

Question: Which self-cleavage does the source give for GGCCGGCAUGGUCCCAGCCUCCUCGCUGGCGCCGGCUGUGCAACAUUCCGAGGGGACCGUCCCCUCGCUAAUGGCGAAUGGGACCCA [G39U G68C] here?
Answer: 0.532

Question: With GGCCGGCAUGGUCCCAGCCUCCUCGAUGCCGCCGGCUGGGCAACAUUCCGAGGGGACCGUCCCCUCGGUAAUGGCGAAUGGGACCCA [C26A G29C] as the variant, how does the self-cleavage read?
Answer: 0.104

Question: Which self-cleavage does the source give for GGCCGGCAUGGUCCCAGCCUCCUCGCUGGCGCCGGCUGGGCAACAUUCUGAGGGUACCGUCCCCUCGGUAAUGGCGAAUGGGACCCA [C49U G55U] here?
Answer: 0.909

Question: For GGCCGGCAUGGUCCCAGCCUCCUCGCUGGUGCCGGGUGGGCAACAUUCCGAGGGGACCGUCCCCUCGGUAAUGGCGAAUGGGACCCA [C30U C36G], which self-cleavage is on record?
Answer: 0.0941

Question: With GGCCGGCAUGGUCCCAGCCUACUCGCUGGCUCCGGCUGGGCAACAUUCCGAGGGGACCGUCCCCUCGGUAAUGGCGAAUGGGACCCA [C21A G31U] as the variant, how does the self-cleavage read?
Answer: 0.142

Question: With GGCCGGCAUGGUCCCAGCCUCCUCGCUGGCGCCGGCUGGGCAACAUUCCGAGGGGACCAUCCCCUCGGUAAUGGCGAAUGUGACCCA [G59A G81U] as the variant, how does the self-cleavage read?
Answer: 0.249

Question: For GGCCGGCAUGGUCCCAGCCUCCUCGCUGGCGCCGGCUGGGCAACAUUCCGAGGGGAUCGUCCCCUCGGGAAUGGCGAAUGGGACCCA [C57U U69G], which self-cleavage is on record?
Answer: 1.27

Question: Which self-cleavage does the source give for GGCCGGCAUGGUGCCAGCCUCCUCGCUGGCGCCGGCUGGGCAACAUUCCGAGGGGACCGCCCCCUCGGUAAUGGCGAAUGGGACCCA [C13G U60C] here?
Answer: 0

Question: Which self-cleavage does the source give for GGCCGGCAUGGUCCCAGCCUCCUCGCUGGCGCCGGCUGCGCAACAUUCCGGGGGGACCGUCCCCUCGGUAAUGGCGAAUGGGACCCA [G39C A51G] here?
Answer: 0.38

Question: For GGCCGGCAUGGUCCCAGCCUCCUCGCUGGCGCCGGCUGGGCAACAUUCCGAGGGGACCGGCCGCUCGGUAAUGGCGAAUGGGACCCA [U60G C63G], which self-cleavage is on record?
Answer: 0.293

Question: With GGCCGGCAUGGUCCCAGCCUCCUCGCUGGCGCCGGCUGGGCAACAUUCCGAGGGGACCGUCCCCUCGGUAAUGGCGAAUGGGACCCG [A87G] as the variant, how does the self-cleavage read?
Answer: 0.984

Question: With GGCCGGCAUGGUCCCAGCCUCCUCGCUGGCGCCGGCUGGUCAAAAUUCCGAGGGGACCGUCCCCUCGGUAAUGGCGAAUGGGACCCA [G40U C44A] as the variant, how does the self-cleavage read?
Answer: 0.107

Question: With GGCCGGCAUGGUCCCAGCCUCCUCGCUGGCGCCGGCCGGGCAACAUUCCGAGGGUACCGUCCCCUCGGUAAUGGCGAAUGGGACCCA [U37C G55U] as the variant, how does the self-cleavage read?
Answer: 1.13

Question: Which self-cleavage does the source give for GGCCGGCAGGGACCCAGCCUCCUCGCUGGCGCCGGCUGGGCAACAUUCCGAGGGGACCGUCCCCUCGGUAAUGGCGAAUGGGACCCA [U9G U12A] here?
Answer: 1.11

Question: For GGCCGGCAUGGUCCCAGCCUCCUCGCUGGCGCCGGCUGGGCAACAUUACGAGUGGACCGUCCCCUCGGUAAUGGCGAAUGGGACCCA [C48A G53U], which self-cleavage is on record?
Answer: 0.915

Reference: the RNAGym collection of RNA variant scans (doi:10.7554/elife.80360)
